{"source": "patent US11466255B2", "about": "“Methods and compositions for converting non-endocrine pancreatic tissue into insulin-producing cells” (UNIVERSITY OF MIAMI, priority 2015, dated 2022)", "molecules": {"B1": {"name": "BMP-7: 35 kDa homodimeric protein of the TGF-β superfamily; FDA-approved agent; human mature chain SEQ ID NO:1/2 (protein, listed as Homo sapiens)", "chain": "IRSTGSKQRSQNRSKTPKNQEALRMANVAENSSSDQRQACKKHELYVSFRDLGWQDWIIAPEGYAAYYCEGECAFPLNSYMNATNHAIVQTLVHFINPETVPKPCCAPTQLNAISVLYFDDSSNVILKKYRNMVVRACGCH", "modifications": "homodimer; human mature chain of BMP-7 (NCBI Reference Sequence NM_001719.2) comprising peptide from 293-431"}}, "key": {"hNEPT": {"system": "hNEPT", "assay": "Immunofluorescence / ImageJ quantification of C-peptide+ cells", "format": "cell-based, human", "conditions": "12 fields/sample, n=3; controls 8.15±0.92%, P<0.0001", "protocol": "Immunofluorescence characterization of the insulin-expressing clusters was conducted. To rule out potential false-positives derived from the presence of residual insulin in the culture medium, we stained for C-peptide, which is present in pro-insulin and therefore indicates de novo synthesis of insulin. […] In order to quantify the number of C-peptide+ cells after BMP-7 treatment ImageJ and the FIJI Analyze particles feature was used. Using this software on an average of 12 fields/sample (n=3), the percentage of C-peptide+cells in hNEPT populations after BMP-7 treatment was determined to be 30.43±4.07% vs. 8.15±0.92% in controls (P<0.0001).\nIF analysis and confocal microscopy: The present study was conducted on human pancreatic samples from cadaveric organ donors. […]\nImaging analysis: For general quantification purposes (e.g., percentage of C-peptide+ cells) we used ImageJ and the FIJI Analyze particles feature. […] Images were then binarized for quantification. The Watershed function was used on the DAPI channel to separate touching nuclei, which were subsequently counted by the Analyze particle command. Subsequently, we detected nuclei that were overlapping with C-peptide+ areas using the AND operator under the Image calculator feature of FIJI. Finally, we quantified the number of nuclei in the overlap area and calculated the ratio of the overlapping nuclei against the total nuclei."}, "[1]": {"system": "stz-treated diabetic mice", "assay": "Systemic BMP-7 in stz-treated diabetic CD1 mice", "format": "in vivo, mouse", "conditions": "BMP-7 500 μg/kg IP daily for 30 days, stz 200 mg/kg", "protocol": "Systemic BMP-7 (500 μg/kg) is administered to CD1 mice by means of intraperitoneal (IP) injection daily for 30 days. This dose is within the range reported for rodents in other BMP administration settings^18,67-69, and is refined in subsequent preclinical experiments. Acute diabetes is induced by a single injection of stz (200 mg/kg) prior to BMP-7 treatment. Controls receive saline by the same route. […] Similar doses^18 are effective at reversing kidney fibrosis. Ten animals/group are used. Half of the animals in each group receive BrdU in the water. Mice are euthanized 30 days after initiation of treatment, or earlier if diabetes reversal is observed. Glycemia is monitored daily at the same time, right before injection. IPGTTs and determination of PI/I ratios is done at 14 and 30 days. Upon euthanasia, the pancreas and other organs are harvested and analyzed by a pathologist to establish if there are tumorigenic or otherwise toxic effects associated with the treatment. The pancreas is also studied by IF in search of potential β-cell/endocrine cell neogenesis and/or signs of β-cell/endocrine cell proliferation (BrdU-treated animals) when compared to saline-treated controls. […] Relative quantification of β-cell/endocrine cell neogenesis are done using normalized total insulin quantification and the imaging techniques described in Example 4 and^17. […]"}, "ALK3+ cells from hNEPT": {"system": "ALK3+ cells from hNEPT", "assay": "BMP-7 response of ALK3-enriched / ALK3+-sorted fraction", "format": "cell-based, human", "protocol": "Magnetic bead-based methods (Miltenyi) were used for the enrichment of ALK3+ cells from hNEPT. Both enriched and negative fractions are subsequently plated and treated with BMP-7 or left untreated (controls).\nThe identity of sorted cells is confirmed by IF, and aliquots are cultured in adherent conditions. Single sorted pancreatic cells are notoriously difficult to culture in plastic, which is addressed by using a combination of Matrigel®-coated plates and fully defined media [STEMPRO® (Thermofisher Scientific, Grand Island, N.Y.) or Kubota's Medium® (PhoenixSongs Biologicals Branford, Conn.)]^8,29,48,49 Matrigel® is used to grow multipotent pancreatic cells^50,51. Colonies from dissociated ALK3^+ cells sorted from fresh hNEPT are readily grown in these conditions, and resemble those obtained from the MPD without sorting. The typical “ring” morphology described by others^50,51 is observed when plating ALK3^+ cells in 3D conditions or fibroblast feeder cells."}}}
{"molecule": "B1", "values": [{"measurement": "percentage of C-peptide+ cells in hNEPT populations after treatment", "setting": "hNEPT", "value": "30.43±4.07", "unit": "%"}, {"measurement": "glycemia vs. controls", "setting": "[1]", "value": "glycemic improvements"}, {"measurement": "increase in insulin expression vs. non-BMP-7 treated controls", "setting": "ALK3+ cells from hNEPT; ALK3+-sorted cells, preliminary qRT-PCR", "value": "10^3 fold"}, {"measurement": "response in terms of C-peptide production", "setting": "ALK3+ cells from hNEPT; magnetic bead ALK3-enriched fraction, only this fraction responds", "value": "BMP-7-responsive"}]}
